Data reported in patent publication US20220064286A1.

Key:
[1] = molecular target: cynomolgus TIGIT-AviFlag-biotin (cynomolgus monkey); experiment: Block ELISA Cyno PVR-Fc:Bio-TIGIT-AviFlag (blocked ligand cyno PVR-Fc)
[2] = molecular target: human TIGIT protein (human) (UniProt Q495A1); experiment: SPR, bivalent affinity
[3] = molecular target: cynomolgus monkey (cyno) TIGIT protein (cynomolgus monkey); experiment: SPR, bivalent affinity
[4] = molecular target: human TIGIT protein (human) (UniProt Q495A1); experiment: SPR (BIACORE) KD normalized to WT, N=2
mouse TIGIT-His (mouse) = mouse TIGIT-His (mouse) (UniProt P86176); experiment: Block ELISA Mouse PVR-Fc:TIGIT-His (blocked ligand mouse PVR-Fc)
[5] = molecular target: human TIGIT protein (human) (UniProt Q495A1); experiment: SPR, monovalent affinity
murine TIGIT (murine) = murine TIGIT (murine) (UniProt P86176); experiment: SPR, monovalent affinity
[6] = molecular target: human TIGIT-AviFlag-biotin (human) (UniProt Q495A1); experiment: Block ELISA Human PVR-Fc:Bio-TIGIT-AviFlag (blocked ligand human PVR-Fc)
[7] = molecular target: human TIGIT protein (human) (UniProt Q495A1); experiment: SPR (BIACORE), N=2

mouse TIGIT-His (mouse), sequence (P86176 29-148 limits assumed): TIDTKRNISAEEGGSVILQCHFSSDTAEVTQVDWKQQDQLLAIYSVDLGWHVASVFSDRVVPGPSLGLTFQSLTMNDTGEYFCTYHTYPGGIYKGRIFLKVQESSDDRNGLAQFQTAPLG
cynomolgus TIGIT-AviFlag-biotin (cynomolgus monkey), sequence (chain, as listed by the source): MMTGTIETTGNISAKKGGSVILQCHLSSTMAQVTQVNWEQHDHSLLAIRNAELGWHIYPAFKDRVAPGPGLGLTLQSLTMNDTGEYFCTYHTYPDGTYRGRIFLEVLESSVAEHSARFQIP
human TIGIT-AviFlag-biotin (human), sequence (Q495A1 22-141): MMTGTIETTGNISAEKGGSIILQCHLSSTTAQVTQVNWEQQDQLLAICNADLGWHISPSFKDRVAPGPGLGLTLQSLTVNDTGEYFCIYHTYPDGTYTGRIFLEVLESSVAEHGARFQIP
human TIGIT protein (human), sequence (Q495A1 22-141 limits assumed): as the sequence (Q495A1 22-141) above
10A7 Fab, sequence (VH): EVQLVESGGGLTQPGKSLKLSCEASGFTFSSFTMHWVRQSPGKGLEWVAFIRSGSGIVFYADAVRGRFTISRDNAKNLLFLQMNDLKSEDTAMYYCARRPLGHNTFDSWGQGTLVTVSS
10A7 Fab, sequence (VL): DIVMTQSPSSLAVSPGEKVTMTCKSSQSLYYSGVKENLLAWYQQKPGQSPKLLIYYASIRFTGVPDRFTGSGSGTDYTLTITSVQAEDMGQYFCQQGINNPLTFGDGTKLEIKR
10A7 (antibody), sequence (VH): as the sequence (VH) above
10A7 (antibody), sequence (VL): as the sequence (VL) above
murine TIGIT (murine), sequence (P86176 29-148 limits assumed): as the sequence (P86176 29-148 limits assumed) above
cynomolgus monkey (cyno) TIGIT protein (cynomolgus monkey), sequence (chain, as listed by the source): as the sequence (chain, as listed by the source) above

| IC50 [1] [nM] | Kd [2] [nM] | Kd [3] [nM] | Binding affinity drop vs. WT [4] [fold] | IC50 (mouse TIGIT-His (mouse)) [nM] | Kd [5] [nM] | Kd (murine TIGIT (murine)) [nM] | IC50 [6] [nM] | Kd [7] [nM] | Substance |
| --- | --- | --- | --- | --- | --- | --- | --- | --- | --- |
| 55.7 | 0.54 | 8.22 | 1 | 12.6 | 24 | 0.24 | 12.9 | 44.7 | 10A7 (antibody) |
| > 133 | – | – | – | 20.9 | – | – | 21.2 | – | 10A7 Fab |
| > 133 | – | – | – | > 133 | – | – | > 133 | – | xCSF1 Fab control |
